Assay results reported in US20110269817A1 (University of California, published 2011).

Target: Myc-tagged PER2 (transfected in JEG3 cells) (UniProt O54943 1-1257, limits assumed)
Test: coimmunoprecipitation with FLAG antibody from cotransfected JEG3 cells, Western with anti-Myc (FIG. 5A)
Protocol: (A) JEG3 cells were cotransfected with a series of expression vectors as described. Flag-tagged SIRT1 proteins were immunoprecipitated by FLAG antibody, and abundance of coimmunoprecipitated proteins was determined by western blotting using anti-Myc antibody (top right panel) and anti-SIRT1 antibody (bottom right panel). Left panels show the immunoblotting results of total cell lysates as an input.

Myc-tagged PER2 (transfected in JEG3 cells), sequence (O54943 whole entry): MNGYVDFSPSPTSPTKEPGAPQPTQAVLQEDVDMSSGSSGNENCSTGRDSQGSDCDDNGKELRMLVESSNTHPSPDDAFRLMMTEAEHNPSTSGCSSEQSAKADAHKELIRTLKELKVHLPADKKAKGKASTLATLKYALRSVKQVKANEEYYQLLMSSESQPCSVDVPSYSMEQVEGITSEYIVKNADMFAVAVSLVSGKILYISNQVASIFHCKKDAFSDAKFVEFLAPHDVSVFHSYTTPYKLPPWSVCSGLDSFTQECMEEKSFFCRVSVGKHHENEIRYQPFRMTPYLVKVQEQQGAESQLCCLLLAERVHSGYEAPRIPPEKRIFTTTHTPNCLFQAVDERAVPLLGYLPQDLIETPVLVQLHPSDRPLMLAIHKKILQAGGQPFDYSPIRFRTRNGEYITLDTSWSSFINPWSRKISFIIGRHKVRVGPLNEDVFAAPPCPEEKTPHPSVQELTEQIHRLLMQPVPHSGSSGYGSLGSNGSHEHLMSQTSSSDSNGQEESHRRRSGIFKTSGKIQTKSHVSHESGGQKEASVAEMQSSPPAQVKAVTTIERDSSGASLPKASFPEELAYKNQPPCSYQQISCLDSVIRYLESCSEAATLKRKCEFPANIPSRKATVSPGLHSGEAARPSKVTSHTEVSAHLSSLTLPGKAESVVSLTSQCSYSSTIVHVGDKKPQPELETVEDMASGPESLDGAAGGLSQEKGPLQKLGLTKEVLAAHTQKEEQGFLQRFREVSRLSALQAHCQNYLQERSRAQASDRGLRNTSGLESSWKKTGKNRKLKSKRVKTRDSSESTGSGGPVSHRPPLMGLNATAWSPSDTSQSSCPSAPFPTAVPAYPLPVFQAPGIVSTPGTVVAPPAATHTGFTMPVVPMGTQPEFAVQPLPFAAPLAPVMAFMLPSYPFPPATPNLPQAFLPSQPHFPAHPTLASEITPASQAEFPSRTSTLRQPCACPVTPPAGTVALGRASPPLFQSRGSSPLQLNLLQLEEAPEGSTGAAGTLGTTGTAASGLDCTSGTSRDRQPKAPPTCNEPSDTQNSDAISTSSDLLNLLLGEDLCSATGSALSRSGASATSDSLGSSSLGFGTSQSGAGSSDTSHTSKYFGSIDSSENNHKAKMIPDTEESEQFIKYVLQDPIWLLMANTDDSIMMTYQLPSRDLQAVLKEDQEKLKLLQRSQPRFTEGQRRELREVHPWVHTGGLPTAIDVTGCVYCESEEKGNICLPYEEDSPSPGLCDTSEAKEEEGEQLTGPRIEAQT

B1: Flag-tagged SIRT1 (transfected in JEG3 cells) (enzyme, mouse, UniProt Q923E4 1-737, looked up, not shown: small tags and cut ends)
chain: MADEVALALQAAGSPSAAAAMEAASQPADEPLRKRPRRDGPGLGRSPGEPSAAVAPAAAGCEAASAAAPAALWREAAGAAASAEREAPATAVAGDGDNGSGLRREPRAADDFDDDEGEEEDEAAAAAAAAAIGYRDNLLLTDGLLTNGFHSCESDDDDRTSHASSSDWTPRPRIGPYTFVQQHLMIGTDPRTILKDLLPETIPPPELDDMTLWQIVINILSEPPKRKKRKDINTIEDAVKLLQECKKIIVLTGAGVSVSCGIPDFRSRDGIYARLAVDFPDLPDPQAMFDIEYFRKDPRPFFKFAKEIYPGQFQPSLCHKFIALSDKEGKLLRNYTQNIDTLEQVAGIQRILQCHGSFATASCLICKYKVDCEAVRGDIFNQVVPRCPRCPADEPLAIMKPEIVFFGENLPEQFHRAMKYDKDEVDLLIVIGSSLKVRPVALIPSSIPHEVPQILINREPLPHLHFDVELLGDCDVIINELCHRLGGEYAKLCCNPVKLSEITEKPPRPQKELVHLSELPPTPLHISEDSSSPERTVPQDSSVIATLVDQATNNNVNDLEVSESSCVEEKPQEVQTSRNVENINVENPDFKAVGSSTADKNERTSVAETVRKCWPNRLAKEQISKRLEGNQYLFVPPNRYIFHGAEVYSDSEDDVLSSSSCGSNSDSGTCQSPSLEEPLEDESEIEEFYNGLEDDTERPECAGGSGFGADGGDQEVVNEAIATRQELTDVNYPSDKS
notes: The plasmid list holds a mouse N-terminal FLAG construct and also Flag-hSIRT1/pECE, so the species used in these experiments is not certain; also called Flag-SIRT1
B1: no binding.
